Article PMC3466176, “Aminopropyltransferases Involved in Polyamine Biosynthesis Localize Preferentially in the Nucleus of Plant Cells” (PLoS ONE, 2012)

B1: His-tagged recombinant spermidine synthase 1 (SPDS1) (enzyme, Arabidopsis thaliana, UniProt Q9ZUB3 1-334, looked up)
chain: MDAKETSATDLKRPREEDDNGGAATMETENGDQKKEPACFSTVIPGWFSEMSPMWPGEAHSLKVEKVLFQGKSDYQDVIVFQSATYGKVLVLDGVIQLTERDECAYQEMITHLPLCSIPNPKKVLVIGGGDGGVLREVARHASIEQIDMCEIDKMVVDVSKQFFPDVAIGYEDPRVNLVIGDGVAFLKNAAEGSYDAVIVDSSDPIGPAKELFEKPFFQSVARALRPGGVVCTQAESLWLHMDIIEDIVSNCREIFKGSVNYAWTSVPTYPSGVIGFMLCSTEGPDVDFKHPLNPIDESSSKSNGPLKFYNAEIHSAAFCLPSFAKKVIESKAN
notes: Arabidopsis spermidine synthase 1 (SPDS1, At1g23820); The insert has no stop codon, so a C-terminal extension from the vector is likely (surmised); also called recombinant His-tagged aminopropyltransferase
B2: His-tagged recombinant spermidine synthase 2 (SPDS2) (enzyme, Arabidopsis thaliana, UniProt O48661 1-340, looked up)
chain: MSSTQEASVTDLPVKRPREAEEDNNGGAMETENGGGEIKEPSCMSSIIPGWFSEISPMWPGEAHSLKVEKILFQGKSDYQDVIVFQSATYGKVLVLDGVIQLTERDECAYQEMITHLPLCSISNPKKVLVIGGGDGGVLREVARHSSVEQIDICEIDKMVVDVAKQYFPNVAVGYEDPRVNLIIGDGVAFLKNAAEGTYDAVIVDSSDPIGPAKELFEKPFFESVNRALRPGGVVCTQAESLWLHMDIIEDIVSNCRDIFKGSVNYAWTSVPTYPSGVIGFMLCSSEGPQVDFKKPVSLIDTDESSIKSHCPLKYYNAEIHSAAFCLPSFAKKVIDSKAN
notes: Arabidopsis spermidine synthase 2 (SPDS2, At1g70310); The Protease 3C site lies before the start ATG, and no cleavage is reported; The insert has no stop codon, so a C-terminal extension from the vector is likely (surmised); also called recombinant His-tagged aminopropyltransferase
B3: His-tagged recombinant spermine synthase (SPMS) (enzyme, Arabidopsis thaliana, UniProt Q94BN2 1-359, looked up)
chain: MEGDVGIGLVCQNTMDGKASNGNGLEKTVPSCCLKAMACVPEDDAKCHSTVVSGWFSEPHPRSGKKGGKAVYFNNPMWPGEAHSLKVEKVLFKDKSDFQEVLVFESATYGKVLVLDGIVQLTEKDECAYQEMIAHLPLCSISSPKNVLVVGGGDGGVLREISRHSSVEVIDICEIDKMVIDVSKKFFPELAVGFDDPRVQLHIGDAAEFLRKSPEGKYDAIIVDSSDPVGPALALVEKPFFETLARALKPGGVLCNMAESMWLHTHLIEDMISICRQTFKSVHYAWSSVPTYPSGVIGFVLCSTEGPAVDFKNPINPIEKLDGAMTHKRELKFYNSDMHRAAFALPTFLRREVASLLAS
notes: Arabidopsis spermine synthase (SPMS, At5g53120); The Protease 3C site lies before the start ATG, and no cleavage is reported; The insert has no stop codon, so a C-terminal extension from the vector is likely (surmised); also called recombinant His-tagged aminopropyltransferase

Biological target: the molecule itself
Test: SEC; 50 to 100 µg of each affinity purified His-tagged enzyme alone on Superdex 200 10/300 GL, 0.2 mL/min, 20 mM Tris-HCl pH 7.6, 150 mM NaCl; fractions followed by absorbance at 280 nm

| Protein | stoichiometry N |
| --- | --- |
| B1 | 2 |
| B2 | 2 |
| B3 | 2 |
